The source of these data is the nanobody polyreactivity screen of Harvey et al. (2022).

This data set is described as follows: yeast display, Sf9 membrane polyspecificity reagent, FACS + sequencing; frameworks hold sequencing errors. The essentials: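 Nanobodies from a synthetic yeast display library (Saccharomyces cerevisiae BJ5465), induced 36–48 hours with galactose, were stained 1 hour at 4 °C with 10% biotinylated, detergent-solubilized Sf9 membrane reagent, enriched on streptavidin microbeads, then FACS-sorted. Anti-HA (expression) and streptavidin (reagent binding) fluorescence set low and high (top ~1%) gates. Polyreactivity labels come from the gate of origin. Genes were colony-PCR amplified, MiSeq 2 × 250 sequenced and filtered by CDR length.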
As to “QLQLVESGGGLVQAGGSLRLSCAASGFTFYVNAMGWYRQDPGKETEFVAAIDWSDTSTYYADSVKGRFTISRDNAKNTVYLQMISLKPVDTAVYYCAADFSPYDYDYWGQGTQVTVSS”, the “polyreactivity (PSR sort gate)” value is “high polyreactivity”.
With “QLQLVESGGGLVQAGGSLRLSCAASGGIFPNYVMGWYRKAPGKERELVAGITSGGNTNYADSVKGRFTISRDNAKNTVYLQMNSLKPEDTAVYYCAADGYRYSVYLIRNPMDYWGQGTQVTVSS”, the “polyreactivity (PSR sort gate)” value was “low polyreactivity”.
“QLQLVESGGGLVQAGGSLRLSCAASGGTFQPNAMGWYIQAPGKESELVAAISWSDGSTYYADSVKGRFTISRDYAKNTVYLQMNSLKPEDTAVDYCAADFTYYDSPYRDYNYESWGQGTQVTVSS”: the “polyreactivity (PSR sort gate)” value is listed as “low polyreactivity”.
Take “QLQLVESGGGLVQAGGSLRLSCAASGIIFRYNTKGSYIQAPGKESELVAAIRTTGGSTYYADSVKGRFTISRDNAKNTVYLQMNSLKPEDPAVYYCAAVGFGRQGQEDYWGHGTQVTVSS”: the “polyreactivity (PSR sort gate)” value was “low polyreactivity”.
Take “QLQLVESGGGLVQAGGSLRLSCAASGITFQWYAMGWYRQAPGKERELVARISSGGSTNYADSVKGRFTISCDNAKYTVYLQMNSVKPEDTAVYYCNARYFWFDYWGQGTQVTVSS”: the “polyreactivity (PSR sort gate)” value is recorded as “high polyreactivity”.
For the sequence “QLQLVESGGGLVQAGGSLRLSCAASGLIQANYAMGWYRQAPGKERELVAAISSSGGSTYSADSVKGRFSISRDNAKNTVYLQMKSLKPEDTAVYYCAAYPLYRRRWTGDYWGQGTQVTVSS”, the “polyreactivity (PSR sort gate)” value is “high polyreactivity”.
The result for “QLQLVESGGGLVQAGGSLRLSCAASGNTYFWYAMGWYRQAPGKERELVAAITSGGSTTYADSVKGRFTISRHNGMNTVYLQMNSLKPEDTAVYYCAQYTRDIFAVTFYEGEDYWGQGSQVTVSS” reads “low polyreactivity”.
On to “QLQLVESGGGLVQAGGSLRLSCAASGRIFHSYTMGCYTQAPGKHRELVSAITWSCGSTYYADSVKGRLTISRDHAKNTVYFQMNSLKAEDTSVFYCNAKRRVFRLSVTSAFDYWGQGTQVTVSS”, for which the “polyreactivity (PSR sort gate)” value is listed as “high polyreactivity”.
Take “QLQLVESGGGLVQAGGSLRLSCAASGRIFQRYAMGWYRQAPGKERELVAGITSSGGSTYYADSVKGRFTISRDNAKNTVYLQMNSLKPEDTAVYYCNAGGELRYYGYRAGGTTRSYDYWGQGTQVTVSS”: the “polyreactivity (PSR sort gate)” value was “low polyreactivity”.
The result for “QLQLVESGGGLVQAGGSLRLSCAASGRTFERNAMGWYRQARGQERELVAAITWSGVSTYYADSVKGRFTISRDNAKNTVYLQMNSLKPEDTAVYYCAADWDWRFHRMNYWGQGTQVTVSS” reads “low polyreactivity”; that for “QLQLVESGGGLVQAGGSLRLSCAASGRTLSRYAMGWYRQAPGNERELVAVISSRGGSTYYADSVKGRFTISRDNAKNTVYLRMNSLKPEDTAVFYCAAVRNRHGYDYWGQGTQVTVSS”, “high polyreactivity”.
The result for “QLQLVESGGGLVQAGGSLRLSCAASGSIFDGNAMGWYRQAPGKERELVAAITNSGGSTYYADSVKGRFTISRDNAKNTVYLQMNSLKPEDTAVYYCNALPFAWRRYRWVRTMYYWGQGTQVTVSS” reads “low polyreactivity”.
Consider “QLQLVESGGGLVQAGGSLRLSCAASGSIFNIYAMGWYRQAPGKERELVATITGIADYTYYADSVMGRFTISRDNAKNTVYLQMNSLKPEDTAVYYCAADKYVSEYDYWGQGTQVTVSS”, for which the “polyreactivity (PSR sort gate)” value was “low polyreactivity”.
Take “QLQLVESGGGLVQAGGSLRLSCAASGSTFTWKAMGWYRQAPGKERELVAAITSGCRTYYADSVKGRFTISRDNAKNTVYIEMNSLKPEDTAVYYCAAKVRHYYSASNYYYWGQGTQVTVSS”: the “polyreactivity (PSR sort gate)” value is “high polyreactivity”.
In the case of “QLQLVESGGGLVQAGGSLRLSCAASGSTFVLYAKGWYRQAPGKERELVAAITWSGDDTYYADSVKGRFTISRDNEKNTVYLQMTSLKPEDTAVYSCAADGRGDLYVWPGIGGDYWGQGTQVTVSS” it was “low polyreactivity”; in that of “QLQLVESGGGLVQAGGSLRLSCAASGSTSVTNAMGWYRQAPGKEREFVATINYSGTSTYYADSVKGRFTISRDNAKNTVYLQMNSLKPEDTAVYYCNAHDFGFYRFSLPGYDYWGQGTQVTVSS”, “low polyreactivity”.
In the case of “QLQLVESGGGLVQAGGSLRLSCAASGYTFKWYAMGCYRQAPGKERELVAAIRGSGGSSYYAVSVKGRFTISRDNAKNTVYLQMNSLKPEDTAGYYCNAVLRWAQNPRIFLGYDYWGQGTQVTVSS” it was “high polyreactivity”; in that of “QLQLVESGGGLVQAGGSLRLSCAASVFTFYVNAMGWYRQAPGKERELVAAISSSGTRTYYADSVKGRFTISRDNAKNTVYLKMNSMKPEDTAVYYCAARAYQHYKWGQGTQVTVSS”, “high polyreactivity”; in that of “QLQLVESGGGLVQAGGSLRLSCAASVRTFNSYAMGRYRQAPGKERELVAGISTSGDNTYYADSVKGRFTISRDNAKNTVFLQMNSLKPEDSAVYYCATQFPPSTIYDYWGQGTQVTVSS”, “low polyreactivity”.
In the case of “QLQLVESGGGLVQAGGSLRLSFAAYGRTFTSNAKGWSRPAPGKERELVAGITSSTGNTHYADSVKGRFTSSRDNAKNTVNFQMNSLKPEDTAVFYCAAVYYVRGYWGTYSRWYDYWGQGTQVTVSS” it was “high polyreactivity”.
Regarding “QLQLVESGGGLVQAGGSLRLTCAASGSIFEVKAMGWYRQAPGTERELVATITYSGGSTYYADSVKGRFTISRDNAKKTVYFQMNSLKPEDTAVYYCATHYVVWELYIYDYWGQGTQVTVSS”, the “polyreactivity (PSR sort gate)” value is “low polyreactivity”.
The result for “QLQLVESGGGLVQAGGSLRLTCAASGSTFTKYDMGWYRQAPGKERELVAAIRSGGDTNYADSVKGRFTISRDNAKYTVYLQMNSLKPEDTAVYYCNTLRNWYYQFDFNYWGQGTQVTVSS” reads “low polyreactivity”.
Take “QLQLVESGGGLVQAGGSRRISCAASGRTFDSNAMGSYRHAPGKERELVAAIYADSVKGRFTISRENAKNTVSLQMNFLKPEDTAVYYCAAETYSGQTYLGEYDFWGQGTQVTVSS”: the “polyreactivity (PSR sort gate)” value is on record as “low polyreactivity”.
“QLQLVESGGGLVQARGSLRLICADSGRIFTSYTMGWYRQAPGKERELVAAIDWSGGTTYYADSVKGPFTISRDNAKNTVYFQMISLKPEDTAVYYCSALYVIVGYYTYEYWGQGTQVTVSS”: the “polyreactivity (PSR sort gate)” value is recorded as “low polyreactivity”.
As to “QLQLVESGRGLVQAGGSLRLSCAASGSTFQLYTMGLYRQAPGKERELVAAITGSGGSTYYADSVKGRFTISRDNAKNTVYLQMNSLKPEDTAVYYCAAKSSFRIAWEYYYWGQGTQGTVSS”, the “polyreactivity (PSR sort gate)” value is “high polyreactivity”.
In the case of “QLQLVESRGGLVQAGGSLRVSCAASGRISQIYAMGWSRQAPGKERELVARITSTDSTYYADSVKGRFTISRDNAKNTVYLQMNSLKPEDTAVYYCAASWWSPYDYWGQGTQVTVSS” it was “low polyreactivity”; in that of “QLQLVESVGGLDQAGGSLRLSCAASGSIFIRNAIGSYRQAPGKERELVAAISSTGSTYYADSVKGRFTISRDNAKNTVYLQMNSLKPEDTAVYYCADYYTVAMDYWGQGTQVTVSS”, “low polyreactivity”.
In the case of “QLQLVESVGGLDQAGGSLRLSCAASRSNFGPYAIGWYRQAPGKERELVAAITWSGDSTYYADSVKGRFTISRDNEKNTVYLQMNSLKPEDTAVYYCAAETFIWGKGTQVTVSS” it was “low polyreactivity”.
In the case of “QLQLVESVRGLVQAGGSLRLSCAASGGIFDTYAKGWYRQAPCKERELVASISRSGSTNYADSVKGRFTISRDNAKNTVYLQMNSLKPEDSAVYYCAADVFYSIYDYWGQGTQVTVSS” it was “low polyreactivity”.
For the sequence “QLQLVETGGGLVQAGGSLRLSCASSGRTFTAYAMVWYREAAGKESELVAAITLSGGRTYYADSVKGRFTISRDNAKNTVYLQMNSLKPEDTAVYYCATDYYWGQGTQVTVSS”, the “polyreactivity (PSR sort gate)” value is “high polyreactivity”.
With “QLQQHESGGGLVQAGDSPRLSCAESDNIFPDSVMCWYLQAPGKERELVATIGFGATTNYADSVKGRFTISRDNAKNTVYLQMNCLKPEDTAVYYSAADPLNYEYFCYWGQGTQVTVSS”, the “polyreactivity (PSR sort gate)” value is given as “low polyreactivity”.
In the case of “QLQRVESGGGLVQAGGSLRLSCAASGSIFNENAMGWYIQAPGKERELVAGIDSGGNTYYADSVKGRFTISRDNAKNTVYLQMISLKPEDTAVYYCAKRGVPVRASATFLFEFDYWGQGTQVPVSS” it was “low polyreactivity”; in that of “QQQLQESGSGLVQAGGSLRLSCAASGNIFQDWVMGWYRQAPGKERELVAAISPGAITYYADSVKGRFTISRDNAKNTVYLQTNSLKPEDTAVYYCAAYYIVEYLHGYWGQGTRVTVSS”, “low polyreactivity”; in that of “QVELVESGGALVQAGGSLSLSCAASGIIFSIYAMGWDRQAPGKERELVAAITYSGGRTYYADSVKGRFTISRDNAKNTVYLQMNSLKPEDTAVYYCAAVGYGEYYWGQGTQVTVSS”, “high polyreactivity”.
The result for “QVELVESGGGLVQAGGSLRLSCAASGGTFYRYAMGWYRQAPGKEREFVASITQRGGRTYYADSVMGRFTISRDNAKNTVYLQMNSLIPEDTACYYCAAQGYKYWHGDGSDYWGQGSQVTVSS” reads “high polyreactivity”.
For the sequence “QVELVESGGGLVQAGGSLRLSCAASGRIFFYNGMGWYRQAPGKERELVAAINRSGGSTYYADSVKGRFTISRDNAKNTVYLQMNSLKPEDTAVYYCNAASFTVPMDYWGHGTQVTVSS”, the “polyreactivity (PSR sort gate)” value was “low polyreactivity”.
The result for “QVELVESGGGLVQAGGSLRLSCAASGRISYLYTMGWYRQAPGKERELFAASRWRDGSTYYADSVKGRFTISRDNAKTTVYLQMNSLKPEDTAVYFCGATPVGFYWYDYWGQGTQVTVSS” reads “low polyreactivity”; that for “QVELVESGGGLVQAGGSLRLSCAASGSTFYYNAMGWYRQGPGTERELVAASTFTGGSTYADSVKGRFTISRDNAKNTVYLQMTSLKPEDTAVYYCAATIQRHDYLGTGYDYWGQGTQVTVSS”, “low polyreactivity”.
As for “QVELVESGGGLVQAGRSLRLSCAASGRILVSYAMGWYRQAPGKERELVAGITSGGDSTYYADSVKGRFTISRDNAKNTVYLQMNSLKPEDTAVYYCDADRDSYRGRKNVRERYTYWGQGTQVTVSS”, the “polyreactivity (PSR sort gate)” value was “high polyreactivity”.
The result for “QVELVESGGGLVQPGGSLRLSCAASGSTFYYYAMGWYRQAPGKERELVATISSGSSTNYADSVKGRFTISRDNAKNTVYLQMNSLKPEDTAVYYCAADRWYITLSIDATISYEYWGQGTQVTVSS” reads “low polyreactivity”; that for “QVEVVESGGGLVQAGGSLRLSCAASGRNFRFNAMGWYRQAPGKERELVAAISFRGGSTYYADTVKGRFTISRDNAKNTVYGQINSLKPEDPAVYYCAARARTGTYRDMYYWGQGTQVTVSS”, “high polyreactivity”.
